Results: publication PMC5657598

Target: Get1/2 heterodimer, cytosolically labeled (Get1-S77C-Cy5 and Get2-S28C-Cy3) (yeast) (UniProt P53192)
Experiment: FRET or BRET

B1: Get3-D57N (enzyme)
chain: MDLTVEPNLHSLITSTTHKWIFVGGKGGVGKTTSSCSIAIQMALSQPNKQFLLISTNPAHNLSDAFGEKFGKDARKVTGMNNLSCMEIDPSAALKDMNDMAVSRANNNGSDGQGDDLGSLLQGGALADLTGSIPGIDEALSFMEVMKHIKRQEQGEGETFDTVIFDTAPTGHTLRFLQLPNTLSKLLEKFGEITNKLGPMLNSFMGAGNVDISGKLNELKANVETIRQQFTDPDLTTFVCVCISEFLSLYETERLIQELISYDMDVNSIIVNQLLFAENDQEHNCKRCQARWKMQKKYLDQIDELYEDFHVVKMPLCAGEIRGLNNLTKFSQFLNKEYNPITDGKVIYELEDKE
Kd: < 1 nM
stoichiometry N (Get3 homodimer per Get1/2 heterodimer): 1
